Where two headings read alike, the source gives them in different places.
How the values were obtained:
[1] = biological target: APCbc, APC R3 subdomains b and c (residues 1,483–1,533), fluorescein-labelled at Cys 1501 (UniProt P25054); assay: stopped-flow fluorescence; association: 25 nM fluorescein-labelled APC mixed 1:1 by volume with 250-2,000 nM β-catenin (pseudo first-order); dissociation: pre-formed 1:1 complex (200 nM) mixed with 10 times molar excess of the same APC construct; PBS, 1 mM DTT; 15°C
[2] = biological target: APCabc with the rigid linker (RL) inserted between residues 1,500 and 1,501, fluorescein-labelled at Cys 1501 (UniProt P25054); assay: as above
[3] = biological target: APCabc with the flexible linker (FL) inserted between residues 1,500 and 1,501, fluorescein-labelled at Cys 1501 (UniProt P25054); assay: as above
[4] = biological target: pAPCabc, full-length R3 domain APCabc containing all five phosphomimetics, fluorescein-labelled at Cys 1501 (UniProt P25054); assay: as above
[5] = biological target: APCabc with the flexible linker (FL) inserted between residues 1,478 and 1,479, fluorescein-labelled at Cys 1501 (UniProt P25054); assay: fluorescence polarisation; fluorescence anisotropy; β-catenin titrated into 10 nM fluorescein-labelled APC construct; PBS, 1 mM DTT; 15°C; adjusted anisotropy fitted to a Hill equation
[6] = biological target: APCbc, APC R3 subdomains b and c (residues 1,483–1,533), fluorescein-labelled at Cys 1501 (UniProt P25054); assay: as above
[7] = biological target: APCabc, third 20aa repeat (R3) region of APC with subdomains a, b and c, fluorescein-labelled at Cys 1501 (UniProt P25054); assay: as above
[8] = biological target: APCabc with the rigid linker (RL) inserted between residues 1,500 and 1,501, fluorescein-labelled at Cys 1501 (UniProt P25054); assay: as above
[9] = biological target: pAPCabc with the flexible linker (FL) inserted between residues 1,500 and 1,501, fluorescein-labelled at Cys 1501 (UniProt P25054); assay: as above
[10] = biological target: pAPCabc with the flexible linker (FL) inserted between residues 1,478 and 1,479, fluorescein-labelled at Cys 1501 (UniProt P25054); assay: as above
[11] = biological target: pAPCabc with the polyproline linker (PP) inserted between residues 1,500 and 1,501, fluorescein-labelled at Cys 1501 (UniProt P25054); assay: as above
[12] = biological target: APCabc with the flexible linker (FL) inserted between residues 1,500 and 1,501, fluorescein-labelled at Cys 1501 (UniProt P25054); assay: as above
[13] = biological target: pAPCabc D1486S, fluorescein-labelled at Cys 1501 (UniProt P25054); assay: as above
[14] = biological target: pAPCabc, full-length R3 domain APCabc containing all five phosphomimetics, fluorescein-labelled at Cys 1501 (UniProt P25054); assay: as above
[15] = biological target: pAPCabc with the rigid linker (RL) inserted between residues 1,500 and 1,501, fluorescein-labelled at Cys 1501 (UniProt P25054); assay: as above
[16] = biological target: pAPCc, phospho domain c of APC R3 in the phosphomimetic form, fluorescein-labelled at Cys 1501 (UniProt P25054); assay: as above
[17] = biological target: pAPCabc D1486S, fluorescein-labelled at Cys 1501 (UniProt P25054); assay: as above; remark: listed apart in the source

armadillo (ARM) repeat domain of human β-catenin (residues 134–671), sequence (P35222 other isoform, or with tags, fused parts or gaps): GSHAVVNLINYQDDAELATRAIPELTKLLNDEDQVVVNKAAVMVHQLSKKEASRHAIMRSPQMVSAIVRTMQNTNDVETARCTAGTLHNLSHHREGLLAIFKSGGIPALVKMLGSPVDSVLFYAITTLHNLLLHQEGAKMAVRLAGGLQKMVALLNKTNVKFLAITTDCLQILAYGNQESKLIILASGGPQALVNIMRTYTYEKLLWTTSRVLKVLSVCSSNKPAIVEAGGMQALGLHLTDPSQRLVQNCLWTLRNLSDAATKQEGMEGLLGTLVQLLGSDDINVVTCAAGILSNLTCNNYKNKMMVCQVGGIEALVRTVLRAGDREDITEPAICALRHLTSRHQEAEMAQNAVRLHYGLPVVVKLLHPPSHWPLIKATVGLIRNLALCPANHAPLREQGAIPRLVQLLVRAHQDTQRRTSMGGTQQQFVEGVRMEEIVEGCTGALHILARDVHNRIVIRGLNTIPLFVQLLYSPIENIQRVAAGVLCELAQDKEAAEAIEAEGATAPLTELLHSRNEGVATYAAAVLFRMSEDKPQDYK

**Q.** What does the source list for “armadillo (ARM) repeat domain of human β-catenin (residues 134–671) (from UniProt P35222 134-671) (domain or fragment)”?
**A.** koff fast [1]: 0.73 s⁻¹; kon [1]: 1.48e+07 M⁻¹ s⁻¹; time constant τ (from the fast off-rate) [1]: 0.96 s; koff fast [2]: 0.89 s⁻¹; koff slow [2]: 0.223 s⁻¹; kon [2]: 1.81e+07 M⁻¹ s⁻¹; time constant τ (from the fast off-rate) [2]: 0.8 s; koff fast [3]: 0.45 s⁻¹; koff slow [3]: 0.1 s⁻¹; kon [3]: 2.41e+07 M⁻¹ s⁻¹; time constant τ (from the fast off-rate) [3]: 1.54 s; koff fast [4]: 0.07 s⁻¹; koff slow [4]: 0.0021 s⁻¹; kon [4]: 2.07e+08 M⁻¹ s⁻¹; time constant τ (from the fast off-rate) [4]: 9.51 s; Kd [5]: 21.5 nM; Kd [6]: 196 nM; Kd [7]: 16.5 nM; Kd [8]: 31.2 nM; Kd [9]: 10.9 nM; Kd [10]: 18.7 nM; Kd [11]: 16.4 nM; Kd [12]: 28.3 nM; Kd [13]: 21.4 nM; Kd [14]: 5.3 nM; Kd [15]: 10.8 nM; Kd [16]: 160 nM; Kd [17]: 30 nM
